First the molecules themselves.
B1: 1-phosphatidylinositol 4,5-bisphosphate phosphodiesterase gamma-1 (Homo sapiens), P19174 (parent)
chain: MAGAASPCANGCGPGAPSDAEVLHLCRSLEVGTVMTLFYSKKSQRPERKTFQVKLETRQITWSRGADKIEGAIDIREIKEIRPGKTSRDFDRYQEDPAFRPDQSHCFVILYGMEFRLKTLSLQATSEDEVNMWIKGLTWLMEDTLQAPTPLQIERWLRKQFYSVDRNREDRISAKDLKNMLSQVNYRVPNMRFLRERLTDLEQRSGDITYGQFAQLYRSLMYSAQKTMDLPFLEASTLRAGERPELCRVSLPEFQQFLLDYQGELWAVDRLQVQEFMLSFLRDPLREIEEPYFFLDEFVTFLFSKENSVWNSQLDAVCPDTMNNPLSHYWISSSHNTYLTGDQFSSESSLEAYARCLRMGCRCIELDCWDGPDGMPVIYHGHTLTTKIKFSDVLHTIKEHAFVASEYPVILSIEDHCSIAQQRNMAQYFKKVLGDTLLTKPVEISADGLPSPNQLKRKILIKHKKLAEGSAYEEVPTSMMYSENDISNSIKNGILYLEDPVNHEWYPHYFVLTSSKIYYSEETSSDQGNEDEEEPKEVSSSTELHSNEKWFHGKLGAGRDGRHIAERLLTEYCIETGAPDGSFLVRESETFVGDYTLSFWRNGKVQHCRIHSRQDAGTPKFFLTDNLVFDSLYDLITHYQQVPLRCNEFEMRLSEPVPQTNAHESKEWYHASLTRAQAEHMLMRVPRDGAFLVRKRNEPNSYAISFRAEGKIKHCRVQQEGQTVMLGNSEFDSLVDLISYYEKHPLYRKMKLRYPINEEALEKIGTAEPDYGALYEGRNPGFYVEANPMPTFKCAVKALFDYKAQREDELTFIKSAIIQNVEKQEGGWWRGDYGGKKQLWFPSNYVEEMVNPVALEPEREHLDENSPLGDLLRGVLDVPACQIAIRPEGKNNRLFVFSISMASVAHWSLDVAADSQEELQDWVKKIREVAQTADARLTEGKIMERRKKIALELSELVVYCRPVPFDEEKIGTERACYRDMSSFPETKAEKYVNKAKGKKFLQYNRLQLSRIYPKGQRLDSSNYDPLPMWICGSQLVALNFQTPDKPMQMNQALFMTGRHCGYVLQPSTMRDEAFDPFDKSSLRGLEPCAISIEVLGARHLPKNGRGIVCPFVEIEVAGAEYDSTKQKTEFVVDNGLNPVWPAKPFHFQISNPEFAFLRFVVYEEDMFSDQNFLAQATFPVKGLKTGYRAVPLKNNYSEDLELASLLIKIDIFPAKENGDLSPFSGTSLRERGSDASGQLFHGRAREGSFESRYQQPFEDFRISQEHLADHFDSRERRAPRRTRVNGDNRL
partner: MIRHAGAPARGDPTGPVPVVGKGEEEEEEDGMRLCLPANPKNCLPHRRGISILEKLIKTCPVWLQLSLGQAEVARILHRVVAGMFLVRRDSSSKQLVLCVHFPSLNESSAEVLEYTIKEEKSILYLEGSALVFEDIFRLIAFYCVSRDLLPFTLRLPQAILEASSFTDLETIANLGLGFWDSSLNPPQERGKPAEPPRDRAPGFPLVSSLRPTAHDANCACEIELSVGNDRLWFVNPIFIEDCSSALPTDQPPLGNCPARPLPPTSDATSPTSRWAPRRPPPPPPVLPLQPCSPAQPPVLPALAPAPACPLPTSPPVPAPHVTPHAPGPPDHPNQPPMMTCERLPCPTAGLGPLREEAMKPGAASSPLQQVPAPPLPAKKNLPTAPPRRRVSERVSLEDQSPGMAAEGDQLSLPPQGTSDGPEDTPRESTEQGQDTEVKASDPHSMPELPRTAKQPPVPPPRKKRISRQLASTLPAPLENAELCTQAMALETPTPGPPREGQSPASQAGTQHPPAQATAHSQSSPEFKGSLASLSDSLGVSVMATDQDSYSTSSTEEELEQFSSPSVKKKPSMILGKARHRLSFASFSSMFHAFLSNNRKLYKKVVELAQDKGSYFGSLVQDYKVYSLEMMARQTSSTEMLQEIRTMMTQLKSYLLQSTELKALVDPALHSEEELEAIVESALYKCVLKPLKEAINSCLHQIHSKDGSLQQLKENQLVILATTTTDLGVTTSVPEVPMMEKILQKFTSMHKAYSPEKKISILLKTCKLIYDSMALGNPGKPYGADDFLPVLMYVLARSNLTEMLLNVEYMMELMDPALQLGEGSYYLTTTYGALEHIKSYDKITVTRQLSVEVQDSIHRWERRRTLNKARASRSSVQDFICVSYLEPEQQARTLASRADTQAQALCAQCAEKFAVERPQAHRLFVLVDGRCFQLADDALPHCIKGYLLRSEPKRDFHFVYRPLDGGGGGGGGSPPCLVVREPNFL
B2: 1-phosphatidylinositol 4,5-bisphosphate phosphodiesterase gamma-1 (Homo sapiens), P19174 (parent)
chain: B1 chain

In the experiment “rin3_human RIN3, Q8TB24” the parent is B1. To be noted: with rin3_human RIN3, Q8TB24.
In experiment [1] the parent is B2. To be noted: with asap2_human ASAP2, O43150.
The experiment “abl2_human ABL2, P42684” covers variants of B2. To be noted: with abl2_human ABL2, P42684.
In experiment [2] the parent is B2. To be noted: with shan2_human SHANK2, Q9UPX8.
Experiment [3] covers variants of B2. To be noted: with m4k1_human MAP4K1, Q92918.
m4k1_human MAP4K1, Q92918, sequence (Q92918 whole entry, looked up): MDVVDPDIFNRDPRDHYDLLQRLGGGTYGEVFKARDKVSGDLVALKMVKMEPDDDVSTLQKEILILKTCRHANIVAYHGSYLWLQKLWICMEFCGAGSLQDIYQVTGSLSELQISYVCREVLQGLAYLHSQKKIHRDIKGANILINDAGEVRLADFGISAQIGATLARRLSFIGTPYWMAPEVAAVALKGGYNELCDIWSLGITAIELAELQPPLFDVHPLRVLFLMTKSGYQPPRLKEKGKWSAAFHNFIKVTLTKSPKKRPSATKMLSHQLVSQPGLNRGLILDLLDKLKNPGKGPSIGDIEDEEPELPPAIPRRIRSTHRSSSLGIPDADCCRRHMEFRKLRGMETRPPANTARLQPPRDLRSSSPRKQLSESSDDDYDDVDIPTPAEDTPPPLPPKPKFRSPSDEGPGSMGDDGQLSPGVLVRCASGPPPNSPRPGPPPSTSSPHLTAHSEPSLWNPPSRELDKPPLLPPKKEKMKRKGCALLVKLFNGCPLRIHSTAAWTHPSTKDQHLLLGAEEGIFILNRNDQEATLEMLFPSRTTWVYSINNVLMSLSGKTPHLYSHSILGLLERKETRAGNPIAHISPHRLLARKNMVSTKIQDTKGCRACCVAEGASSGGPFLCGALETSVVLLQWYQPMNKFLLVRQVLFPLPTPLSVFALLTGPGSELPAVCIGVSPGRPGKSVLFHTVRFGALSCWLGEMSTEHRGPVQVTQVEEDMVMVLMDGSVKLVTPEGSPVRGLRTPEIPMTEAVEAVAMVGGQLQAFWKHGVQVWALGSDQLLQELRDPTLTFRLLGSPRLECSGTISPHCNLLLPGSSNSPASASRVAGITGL

abl2_human ABL2, P42684, sequence (P42684 whole entry): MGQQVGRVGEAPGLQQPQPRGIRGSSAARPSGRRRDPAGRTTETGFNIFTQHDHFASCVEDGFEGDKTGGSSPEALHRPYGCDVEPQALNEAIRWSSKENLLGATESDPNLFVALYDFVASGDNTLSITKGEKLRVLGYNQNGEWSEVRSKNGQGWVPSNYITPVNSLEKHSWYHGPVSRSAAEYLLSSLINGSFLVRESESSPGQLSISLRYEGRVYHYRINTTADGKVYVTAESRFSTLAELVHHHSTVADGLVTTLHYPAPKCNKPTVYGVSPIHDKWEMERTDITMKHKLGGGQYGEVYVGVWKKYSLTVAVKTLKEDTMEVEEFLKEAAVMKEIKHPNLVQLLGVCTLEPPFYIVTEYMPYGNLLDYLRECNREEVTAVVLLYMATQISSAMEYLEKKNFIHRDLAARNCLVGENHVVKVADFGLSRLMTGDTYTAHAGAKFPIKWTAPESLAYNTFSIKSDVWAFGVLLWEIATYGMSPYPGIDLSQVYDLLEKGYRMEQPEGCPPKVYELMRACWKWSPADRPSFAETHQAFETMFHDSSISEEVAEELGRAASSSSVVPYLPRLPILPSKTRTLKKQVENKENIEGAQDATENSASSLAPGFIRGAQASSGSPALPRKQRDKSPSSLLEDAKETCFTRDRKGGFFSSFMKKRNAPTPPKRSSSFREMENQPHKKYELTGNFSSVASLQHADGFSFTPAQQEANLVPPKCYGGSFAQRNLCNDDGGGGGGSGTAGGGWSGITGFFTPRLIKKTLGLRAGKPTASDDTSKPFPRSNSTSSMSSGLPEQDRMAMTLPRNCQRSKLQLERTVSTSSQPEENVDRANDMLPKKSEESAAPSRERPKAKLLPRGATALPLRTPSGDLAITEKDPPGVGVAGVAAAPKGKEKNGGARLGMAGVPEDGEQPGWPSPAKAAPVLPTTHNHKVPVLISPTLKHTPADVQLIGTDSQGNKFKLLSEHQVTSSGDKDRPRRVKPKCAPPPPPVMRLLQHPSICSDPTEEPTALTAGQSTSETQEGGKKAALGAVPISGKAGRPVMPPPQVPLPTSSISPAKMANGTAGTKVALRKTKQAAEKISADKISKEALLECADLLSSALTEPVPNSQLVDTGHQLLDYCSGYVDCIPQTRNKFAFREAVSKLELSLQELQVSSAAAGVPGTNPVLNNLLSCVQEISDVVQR
asap2_human ASAP2, O43150, sequence (O43150 whole entry): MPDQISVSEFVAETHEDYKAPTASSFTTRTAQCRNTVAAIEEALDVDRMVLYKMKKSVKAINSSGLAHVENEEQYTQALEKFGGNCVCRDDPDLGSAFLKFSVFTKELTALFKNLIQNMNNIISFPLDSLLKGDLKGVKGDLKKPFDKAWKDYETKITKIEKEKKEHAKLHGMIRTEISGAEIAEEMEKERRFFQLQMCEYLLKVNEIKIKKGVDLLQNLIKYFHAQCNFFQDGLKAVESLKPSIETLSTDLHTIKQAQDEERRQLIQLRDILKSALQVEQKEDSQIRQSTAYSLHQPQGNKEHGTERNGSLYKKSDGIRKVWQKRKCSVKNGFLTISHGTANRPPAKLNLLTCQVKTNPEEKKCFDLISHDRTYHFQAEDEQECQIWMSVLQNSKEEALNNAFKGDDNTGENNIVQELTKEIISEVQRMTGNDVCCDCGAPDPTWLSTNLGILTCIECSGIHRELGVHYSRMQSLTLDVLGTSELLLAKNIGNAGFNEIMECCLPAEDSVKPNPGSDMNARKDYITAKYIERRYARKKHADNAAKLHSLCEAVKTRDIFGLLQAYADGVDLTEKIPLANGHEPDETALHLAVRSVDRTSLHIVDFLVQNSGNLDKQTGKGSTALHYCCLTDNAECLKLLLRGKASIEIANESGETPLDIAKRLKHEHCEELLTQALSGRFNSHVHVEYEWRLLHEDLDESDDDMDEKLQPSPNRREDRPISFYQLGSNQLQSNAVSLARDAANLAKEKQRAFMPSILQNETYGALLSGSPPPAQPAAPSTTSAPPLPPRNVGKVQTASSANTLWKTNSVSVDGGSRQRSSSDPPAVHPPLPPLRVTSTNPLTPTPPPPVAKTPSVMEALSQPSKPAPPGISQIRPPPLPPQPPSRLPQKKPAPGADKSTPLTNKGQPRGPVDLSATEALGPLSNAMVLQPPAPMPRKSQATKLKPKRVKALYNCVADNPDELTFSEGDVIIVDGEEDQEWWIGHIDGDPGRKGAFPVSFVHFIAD
shan2_human SHANK2, Q9UPX8, sequence (Q9UPX8 whole entry): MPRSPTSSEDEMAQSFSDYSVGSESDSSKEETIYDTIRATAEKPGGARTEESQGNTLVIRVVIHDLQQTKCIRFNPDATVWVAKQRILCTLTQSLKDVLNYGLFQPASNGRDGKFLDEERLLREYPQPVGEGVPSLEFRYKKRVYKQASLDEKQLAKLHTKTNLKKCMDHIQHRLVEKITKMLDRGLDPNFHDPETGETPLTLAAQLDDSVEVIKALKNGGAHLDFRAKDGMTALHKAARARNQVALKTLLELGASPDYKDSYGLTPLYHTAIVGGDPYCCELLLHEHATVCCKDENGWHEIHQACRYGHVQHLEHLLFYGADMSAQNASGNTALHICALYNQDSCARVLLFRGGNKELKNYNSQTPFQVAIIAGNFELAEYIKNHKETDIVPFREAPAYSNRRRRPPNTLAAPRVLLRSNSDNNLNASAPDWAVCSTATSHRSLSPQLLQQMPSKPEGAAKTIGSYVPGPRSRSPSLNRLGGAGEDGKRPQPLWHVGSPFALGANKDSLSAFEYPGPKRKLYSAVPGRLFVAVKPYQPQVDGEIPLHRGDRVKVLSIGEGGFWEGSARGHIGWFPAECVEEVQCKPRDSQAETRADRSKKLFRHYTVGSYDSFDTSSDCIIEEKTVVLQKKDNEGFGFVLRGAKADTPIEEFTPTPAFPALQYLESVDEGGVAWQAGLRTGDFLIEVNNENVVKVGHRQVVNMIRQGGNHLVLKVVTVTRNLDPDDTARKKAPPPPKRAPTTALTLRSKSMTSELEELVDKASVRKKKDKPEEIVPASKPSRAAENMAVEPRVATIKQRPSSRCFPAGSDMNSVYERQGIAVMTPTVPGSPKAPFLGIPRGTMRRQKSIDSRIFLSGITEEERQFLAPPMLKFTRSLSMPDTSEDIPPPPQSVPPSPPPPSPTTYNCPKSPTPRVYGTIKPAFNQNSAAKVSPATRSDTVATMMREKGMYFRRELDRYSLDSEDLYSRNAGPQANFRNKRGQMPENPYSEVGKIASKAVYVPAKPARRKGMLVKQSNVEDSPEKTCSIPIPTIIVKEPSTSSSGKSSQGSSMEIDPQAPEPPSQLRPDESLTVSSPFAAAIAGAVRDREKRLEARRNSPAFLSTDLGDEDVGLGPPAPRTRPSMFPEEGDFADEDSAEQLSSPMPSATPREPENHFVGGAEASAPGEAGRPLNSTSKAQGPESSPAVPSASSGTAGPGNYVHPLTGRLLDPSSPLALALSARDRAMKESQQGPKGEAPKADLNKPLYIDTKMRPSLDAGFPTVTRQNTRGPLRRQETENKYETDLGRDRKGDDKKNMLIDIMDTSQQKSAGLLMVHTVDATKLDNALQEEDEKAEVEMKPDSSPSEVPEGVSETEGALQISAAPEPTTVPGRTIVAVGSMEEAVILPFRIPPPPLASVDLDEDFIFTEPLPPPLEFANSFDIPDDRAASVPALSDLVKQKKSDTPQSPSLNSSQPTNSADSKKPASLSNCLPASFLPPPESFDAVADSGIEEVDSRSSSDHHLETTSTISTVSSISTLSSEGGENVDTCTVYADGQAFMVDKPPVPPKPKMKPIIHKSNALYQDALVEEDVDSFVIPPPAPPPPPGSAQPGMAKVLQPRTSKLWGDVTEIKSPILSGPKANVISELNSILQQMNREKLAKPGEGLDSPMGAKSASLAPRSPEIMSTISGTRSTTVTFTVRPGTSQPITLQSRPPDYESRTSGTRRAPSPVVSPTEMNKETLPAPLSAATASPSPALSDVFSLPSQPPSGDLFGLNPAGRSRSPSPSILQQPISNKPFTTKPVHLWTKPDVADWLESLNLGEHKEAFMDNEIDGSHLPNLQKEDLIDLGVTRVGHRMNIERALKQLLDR

For the variant W828A, the “effect of a mutation on the interaction” value with rin3_human RIN3, Q8TB24 is “disrupting interaction”.

As to W828A, the “effect of a mutation on the interaction” value was “disrupting interaction” in experiment [1]; “disrupting interaction” with abl2_human ABL2, P42684; “disrupting interaction” in experiment [2]; “disrupting interaction” in experiment [3].

(Values after IntAct's records for PubMed 17474147.)
